Target: T1, Methylobacterium extorquens (Mex) PqqE (Methylobacterium extorquens, UniProt P71517 1-384)
T1 sequence (looked up): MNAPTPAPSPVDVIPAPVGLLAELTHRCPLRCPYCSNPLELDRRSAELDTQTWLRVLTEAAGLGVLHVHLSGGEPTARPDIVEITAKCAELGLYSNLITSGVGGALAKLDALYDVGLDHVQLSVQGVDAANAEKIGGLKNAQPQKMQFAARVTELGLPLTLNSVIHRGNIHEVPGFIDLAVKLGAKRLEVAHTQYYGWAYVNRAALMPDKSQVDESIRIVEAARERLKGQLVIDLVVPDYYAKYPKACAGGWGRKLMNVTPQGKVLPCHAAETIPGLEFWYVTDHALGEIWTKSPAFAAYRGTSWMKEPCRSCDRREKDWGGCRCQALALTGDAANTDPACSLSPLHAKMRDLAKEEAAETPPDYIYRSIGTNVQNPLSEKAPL
Assay: native MS

B1: Methylobacterium extorquens (Mex) PqqD (domain or fragment, Methylobacterium extorquens AM1, UniProt Q49150 280-372, looked up)
chain: EPTAFSGSDVPRLPRGVRLRFDEVRNKHVLLAPERTFDLDDNAVAVLKLVDGRNTVSQIAQILGQTYDADPAIIEADILPMLAGLAQKRVLER
  stoichiometry N: 1

— article PMC6287933 (Methods in enzymology, 2018)
